Source: article PMC3037356, “BosR (BB0647) Controls the RpoN-RpoS Regulatory Pathway and Virulence Expression in Borrelia burgdorferi by a Novel DNA-Binding Mechanism” (PLoS Pathogens, 2011)

Tests used:
[1] = target: the molecule itself; assay: SEC; purified BosR on a Superdex 200 column, calibrated with aldolase 158 kDa, ovalbumin 43 kDa and ribonuclease A 13.7 kDa; buffer A: 20 mM Tris, 20 mM NaCl, 100 mM L-arginine, pH 7.5
BosR (rBosR) [2] = target: T1, BosR (rBosR) (UniProt O51592 1-176); assay: EMSA; 20 mM Hepes pH 7.5, 50 mM KCl, 1 mM MgCl2, 1 mM DTT, 5% glycerol, 100 ug/ml BSA, 50 ug/ml poly[d(A-T)], 30 fmol probe in 20 ul, 37 C 30 min; details: protein: recombinant, tags: none (His6-SUMO tag removed by SUMO protease), chain copies: 2, blunt; for Kd: label: digoxigenin 3' end (terminal transferase); for binding result: label: digoxigenin 3' end
BosR (rBosR) [3] = target: T1, BosR (rBosR); assay: EMSA; binding not altered; 20 mM Hepes pH 7.5, 50 mM KCl, 1 mM MgCl2, 1 mM DTT, 5% glycerol, 100 ug/ml BSA, 50 ug/ml poly[d(A-T)], 30 fmol probe in 20 ul, 37 C 30 min; details: protein: recombinant; tags: none (His6-SUMO tag removed by SUMO protease); chain copies: 2; label: digoxigenin 3' end; blunt

Binder	binding result (BosR (rBosR) [2])	also measured
Recombinant BosR (BB0647) (natural protein, BosR (BB0647), Fur/PerR homologue of Borrelia burgdorferi; bosR amplified with primers ZM69F and ZM69R and cloned into pET SUMO (pOY73); apparent mass ~18.7 kDa, as for native BosR; The protein contained 1.4 mol of zinc per mol of protein; also called rBosR; purified BosR; source: E. coli BL21-DE3, purified (Ni-NTA spin column, SUMO protease cleavage, Superdex 200); not shown: His6, N-terminal, …) MNDNIIDVHSALEKVGITNDPVLLKNLTSELGMKASHSRNRIILYIASNPKEYFTAKEVYNKLIKEIPSLSKATVYNTLNILKERNILKDIKTTDQKETKFYLSLASTIAHFKCNKCNQVHPIQLDDIKDILKDKLGENWETKSIEIIYSGHCNNCYKKDTHNNNNVPDENKEITL		stoichiometry N [1]: 2
ZM132 (BS1) (dsDNA) DNA 1: GGCCTTGCCGATTTAATTTACAATCAATTACAAAAAAGTAAATAATTCAAAAAATACTCC DNA 2: GGAGTATTTTTTGAATTATTTACTTTTTTGTAATTGATTGTAAATTAAATCGGCAAGGCC		Kd (BosR (rBosR) [2]): 210 nM
ZM127 (BS2) (dsDNA) DNA 1: TTTAGTTTAAAACCATTTTTAAATTAAATTGGCACAGTTTTTGCATGAAAATTAAGTAGT DNA 2: ACTACTTAATTTTCATGCAAAAACTGTGCCAATTTAATTTAAAAATGGTTTTAAACTAAA		Kd (BosR (rBosR) [2]): 36.6 nM
ZM155 (BS1 5' DR) (dsDNA) DNA 1: CTCAAAGCTTTGGCCTTGCCGATTTAATTTACAATCAATTACAAAGCTGAGATCTGTCGA DNA 2: TCGACAGATCTCAGCTTTGTAATTGATTGTAAATTAAATCGGCAAGGCCAAAGCTTTGAG	binds	
ZM210 (ZM155 DR mutant) (dsDNA) DNA 1: CTCAAAGCTTTGGCCTTGCCGATTTGGCCTACAATCAATTACAAAGCTGAGATCTGTCGA DNA 2: TCGACAGATCTCAGCTTTGTAATTGATTGTAGGCCAAATCGGCAAGGCCAAAGCTTTGAG	no binding	
ZM156 (BS1 3' DR) (dsDNA) DNA 1: GCTGAGATCTGTCGAATCAATTACAAAAAAGTAAATAATTCAAAAAATACTCCCCCTAAA DNA 2: TTTAGGGGGAGTATTTTTTGAATTATTTACTTTTTTGTAATTGATTCGACAGATCTCAGC	binds	
ZM211 (ZM156 DR mutant) (dsDNA) DNA 1: GCTGAGATCTGTCGAATCAATTACAAAAAAGTAGGCCATTCAAAAAATACTCCCCCTAAA DNA 2: TTTAGGGGGAGTATTTTTTGAATGGCCTACTTTTTTGTAATTGATTCGACAGATCTCAGC	no binding	
ZM149 (dsDNA) DNA 1: TTTAGTTTAAAACCATTTTTAAATTAAATTGGCACAGTTTTTGCATTTTAACAGGCAAAA DNA 2: TTTTGCCTGTTAAAATGCAAAAACTGTGCCAATTTAATTTAAAAATGGTTTTAAACTAAA	binds	
ZM147 (dsDNA) DNA 1: AAAAAGCTGAGATCTGTCGACATCCATGGTGGCACAGTTTTTGCATGAAAATTAAGTAGT DNA 2: ACTACTTAATTTTCATGCAAAAACTGTGCCACCATGGATGTCGACAGATCTCAGCTTTTT	no binding	
ZM213 (DR1 mutant) (dsDNA) DNA 1: ATTTTATATCCTAGGCCGTTTAAAACCATTTTTAAATTAAATTGGCACAGTTTTTGCATG DNA 2: CATGCAAAAACTGTGCCAATTTAATTTAAAAATGGTTTTAAACGGCCTAGGATATAAAAT	binds	
ZM223 (DR1 and DR2 mutant) (dsDNA) DNA 1: ATTTTATATCCTAGGCCGTTTAAAACCATTTTTAGGCCAAATTGGCACAGTTTTTGCATG DNA 2: CATGCAAAAACTGTGCCAATTTGGCCTAAAAATGGTTTTAAACGGCCTAGGATATAAAAT	no binding	
ZM216 (ZM215 DR mutant) (dsDNA) DNA 1: TGGTTTAGATGGCCTTTTTTTCTCAATTCAGCAATTTCTGAATATAGAATTTTCATATCT DNA 2: AGATATGAAAATTCTATATTCAGAAATTGCTGAATTGAGAAAAAAAGGCCATCTAAACCA	no binding	
ZM218 (ZM217 DR mutant) (dsDNA) DNA 1: AGTGTAAAAAGGCCAATCAATTTTTTCATTAAATATCCTTTTTATTTATTATGGTATTAA DNA 2: TTAATACCATAATAAATAAAAAGGATATTTAATGAAAAAATTGATTGGCCTTTTTACACT	no binding	
ZM219 (bosR upstream) (dsDNA) DNA 1: AAAAAAATATGAAAATAAATAAATAATAAGTAGTAAAATATTAATAACTGGGTATAAAAT DNA 2: ATTTTATACCCAGTTATTAATATTTTACTACTTATTATTTATTTATTTTCATATTTTTTT	binds	
ZM220 (ZM219 DR mutant) (dsDNA) DNA 1: AAAAAAATATGAAAATGGCCAAATAATAAGTAGTAAAATATTAATAACTGGGTATAAAAT DNA 2: ATTTTATACCCAGTTATTAATATTTTACTACTTATTATTTGGCCATTTTCATATTTTTTT	no binding	
ZM157 (-24/-12 mutant) (dsDNA) DNA 1: TTTAGTTTAAAACCATTTTTAAATTAAATTTTCACAGTTTTTGAATTCCAACAGGCAAAA DNA 2: TTTTGCCTGTTGGAATTCAAAAACTGTGAAAATTTAATTTAAAAATGGTTTTAAACTAAA		binding result (BosR (rBosR) [3]): binds
ZM166 (-24/-12 and DR mutant) (dsDNA) DNA 1: TTTAGTTTAAAACCATTTTTAGGCCAAATTTTCACAGTTTTTGAATTCCAACAGGCAAAA DNA 2: TTTTGCCTGTTGGAATTCAAAAACTGTGAAAATTTGGCCTAAAAATGGTTTTAAACTAAA	no binding	
ZM126 (dsDNA) DNA 1: TTGCATGGAAATTAAGTAGTAAAAACTTAATCACAATATTCAAGAAAGGGGAGAAAATAT DNA 2: ATATTTTCTCCCCTTTCTTGAATATTGTGATTAAGTTTTTACTACTTAATTTCCATGCAA	no binding	
ZM160 (5' of BS3) (dsDNA) DNA 1: TCACAATATTCAAGAAAGGGGAGAAAATATAATAACTATGAACATATTTAGTAATGAGGA DNA 2: TCCTCATTACTAAATATGTTCATAGTTATTATATTTTCTCCCCTTTCTTGAATATTGTGA	no binding	
